Data set [1] concerns the target maize EPSPS. The experiment in a line: substrate saturation kinetic analysis (kcat, KM PEP, KI glyphosate). It is filed as biochemical. As to conditions: for KI/KM: discrimination between glyphosate and PEP. As to the method: (§1) EPSPS activity was determined by quantifying the phosphate generated from the EPSPS reaction. Release of inorganic phosphate was coupled to its reaction with 2-amino-6-mercapto-7-methylpurine ribonucleoside (MESG), catalyzed by purine nucleoside phosphorylase, according to previously described protocols. To determine the kcat gly, enzyme preparations were normalized to 0.1 mg/ml and four- to six-microliter aliquots of normalized enzyme were added to the wells of a low UV-absorbing 96-well assay plate (Greiner UV-Star). Reactions were started with the addition of 2×147 μl of reaction mixture containing 25 mM Hepes, pH 7.0, 100 mM KCl, 5% ethylene glycol, 30 μM each of PEP and S3P, 0.15 mM MESG, 1.5 U/ml purine nucleoside phosphorylase (Sigma N8264) and 1 mM glyphosate. Absorbance was monitored at 4 sec intervals for 50 sec with a Spectramax plate reader (Molecular Devices). […] Division by the enzyme concentration (0.04 to 0.1 uM, depending on activity) yields “kcat gly” in units of min^−1.
(§2) Approximately 30 substitutions were designed into each library. Assuming an average incorporation rate of six substitutions per variant, the theoretical size of such libraries is ˜7×10^5. Libraries were screened using methods described previously and the enhanced method described in Example 2. The number of colony-forming units plated and screened was in the range of 50 to 100% of the theoretical size. Up to 200 colonies per library were picked for evaluation of the expressed variant. Proteins were purified as described previously in PCT/US2016/054399, incorporated herein by reference. Protein concentration was determined by measuring optical density at 280 nm. The extinction coefficient of native maize EPSPS (0.676 OD/mg/ml) was calculated by vNTI and used to convert OD280 to mg/ml. Kinetic parameters were determined as described in Example 1.
Combinatorial shuffling, maize native EPSPS—The mutations discovered were used to construct a combinatorial library designed to explore combinations of the desensitizing mutations in novel sequence contexts provided by the newly identified neutral mutations. Note that the amino acid position numbering in this Example 10 refers to the relative position of native maize EPSPS without the N-terminal Met. Therefore, G101A in this Example would be G102A in reference to SEQ ID NO: 1, wherein the maize EPSPS sequence has a Met added at the N-terminal. The diversity used was the same with the addition of G101A, T102 (IALGV) and P106(WA). In all, 43 substitutions at 29 positions were selected. The library was synthesized entirely from oligonucleotides, using the known technique of synthetic shuffling and was termed NatFS (Native, fully synthetic). The vector DNA of the library was transformed into the BL21(DE3) Tuner-AroA knockout strain and the cells were plated onto M9 medium containing either 30 mM glyphosate and 30 μM of the lac operon inducer isopropyl β-D-1-thiogalactopyranoside (IPTG) or 50 mM glyphosate and no IPTG. The 184 colonies that grew on either plate were picked and subjected to a second tier of screening in which EPSPS proteins were purified and activity measured at high (200 μM) and low (50 μM) PEP and S3P, with or without 10 μM glyphosate. Selected variants were subjected to substrate saturation kinetic analysis.

In data set [2] the test system is maize EPSPS. The experiment in a line: kcat gly / kgly: enzyme turnover under application conditions (30 μM PEP and S3P, 1 mM glyphosate), phosphate release coupled to MESG. Format: biochemical. On the procedure: A more straight-forward, accurate and meaningful parameter is one in which one rate measurement is performed under presumed in vivo conditions, if known. To establish a set of conditions that mimic those under which the mutated enzyme needs to perform, the concentrations of PEP and S3P were set low (30 uM, subject to the sensitivity of assay conditions) to approach the presumed intracellular concentrations (˜15 uM, the approximate values of KM for both PEP and S3P). Glyphosate is included at 1 mM. The pH is set at 7.0 and ionic strength at 100 mM KCl, also to mimic known in vivo conditions. Ethylene glycol is present at 5% (v/v) to approximate the dielectric constant of intracellular fluid. The parameter is termed “enzyme turnover under application conditions”, which is herein shortened to “kcat gly”. The conventional formatting of the expression “kcat” is not used, to avoid this term being characterized as a standard kinetic constant.
as §1, §2
A customized parameter for predicting performance in the treated plant that would be a more accurate representation than kcat/Km*Ki. […] However, kcat/Km*Ki may be inadequate for predicting the reaction velocity under the conditions of the application (plants sprayed with glyphosate) because it may neglect concentrations of substrate and inhibitor, factors that are not intrinsic to the enzyme, but on which the reaction rate depends. Therefore, libraries derived from C1 on in FIG. 2 were evaluated with a single rate measurement designed to take all factors in the rate equation for competitive inhibition into account. […] Glyphosate was included at 1 mM, a concentration attainable in tissues, especially meristems, receiving metabolite flow from treated leaves. The pH (7.0), ionic strength (100 mM KCl) and co-solvent concentration (5% ethylene glycol) were also intended to mimic in vivo conditions. The unit for the parameter is reaction rate (μM·min^−1) per enzyme concentration (μM), or min^−1, describing the enzyme turnover under application conditions, which we abbreviate as “kgly”. […]

[3] abbreviates: Table 2, KM for PEP, read-out: KM.
The mark [4] stands for this setting: Table 2, 30 μM PEP and S3P, 1 mM glyphosate, pH 7.0.

Where two headings read alike, the source gives them in different places.

B1: Zm D2-3P124: maize EPSPS variant, SEQ ID NO: 3; D2-124 has 18 mutations (protein)
chain: MRKWEEIVLQPIKEISGTVKLPGSKSLSNRILLLAALSEGTTVVDNLLNSEDVGYMLGALRTLGLSVEHDEAAKRAVVVGCGGRFPVEDAKGEVQLFCGNAATAMRPLTAAVTAAGGNATYVLDGVPRMRERPIGDLVVGLKQLGADVDCFLGTDCPPVRVNGIGGLPGGKVKLSGSISSQYLSALLMAAPLALGDVEIEIIDKLISLPYVEMTLRLMERFGVRAEHSDSWDRFYIKGGQKYESPKNAYVEGDASSASYFLAGAAITGGTVTVEGCGTTSLQGDVKFAEVLEMMGAKVTWTETSVTVTGPPREPFGRKHLKAIDVNMNKMPDAAMTLAVVALFADGPTAIRDVGSWRVKETERMVAIRTELTKLGASVEEGPDYCIITPPPKLNVTAIDTYGDHRMAMAFSLAACGEVPVTIRDPGCTRKTFPDYFDVLSTFVKN
modifications: Zea mays
notes: D2-124 has 18 mutations
Turning to B1, the inhibition constant (Ki) is 893 ± 53 µM at maize EPSPS [1] (Ki for glyphosate) and 1330 µM on maize EPSPS [1] (Table 2, inhibitor glyphosate). The kcat with maize EPSPS [1] (Table 2) turned out to be 9.88 s⁻¹; with maize EPSPS [1] (maize EPSPS variants), 10.5 ± 0.083 s⁻¹. The “kcat/KM*KI” value in the data set on maize EPSPS [1] (Table 2) turned out to be 22710. In addition, the Km in the data set on maize EPSPS [1] (setting [3]) was found to be 34.7 µM; in the data set on maize EPSPS [1] (apparent Km, PEP present at 10 times its Km, read-out: Km S3P), 11.1 ± 0.7 µM; in the data set with maize EPSPS [1] (apparent Km, S3P present at 10 times its Km, read-out: Km PEP), 18.1 ± 0.7 µM. For the same molecule, the KI/KM in the data set on maize EPSPS [1] (Table 2) came out at 38.3. Also, in the data set with maize EPSPS [1] (calculated with Km for PEP), the “kcat/Km*Ki” value is listed as 31130. Moreover, in the data set with maize EPSPS [2] (setting [4]), the kcat gly was determined as 2.2 s⁻¹. The kgly in the data set with maize EPSPS [2] (enzyme turnover at 30 μM PEP and S3P, 1 mM glyphosate) was determined as 175 ± 2.5 min⁻¹.

B2: Zm D2-28: maize EPSPS variant, SEQ ID NO: 8 (protein)
chain: MRKWEEIVLQPIKEISGTVKLPGSKSLSNRILLLAGLAEGTTVVDNLLNSEDVHYMLGALRTLGLSVEHDKAAKRAVVVGCGGRFPVEDAKGEVQLFCGNAATAMRPLTAAVTAAGGNATYVLDGVPRMRERPIGDLVVGLKQLGADVDCFLGTDCPPVRVNGIGGLPGGKVKLSGSISSQYLSALLMAAPLALGDVEIEIIDKLISLPYVEMTLRLMERFGVKAERSDSWDRFYIKGGQSYLSPKNAYVEGDASSASYFLAGAAITGGTVTVEGCGTTSLQGDVKFAEVLEMMGAKVTWTEASVTVTGPPREPFGRKHLKAIDVNMNKMPDAAMTLAVVALFADGPTAIRDVGSWRVKETERMVAIRTELTKLGASVEEGPDYCIITPPEKLNVTAIDTYGDHRMAMAFSLAACAEVPVTIRDPGCTRKTFPDYFDVLSTFVKN
modifications: Zea mays
B2: in the data set on maize EPSPS [1] (Table 2), the kcat was 8.03 s⁻¹, the “kcat/KM*KI” value was found to be 21500 and the KI/KM came to 44.5. Besides, the Km in the data set on maize EPSPS [1] (setting [3]) was 15.8 µM. Moreover, the Ki at maize EPSPS [1] (Table 2, inhibitor glyphosate) was found to be 703 µM. The kcat gly with maize EPSPS [2] (setting [4]) was 2 s⁻¹.

B3: Zm D2-82: maize EPSPS variant, SEQ ID NO: 6 (protein)
chain: MRKWEEIVLQPIKEISGTVKLPGSKSLSNRILLLAALSEGTTVVDNLLNSEDVHYMLGALRTLGLSVEHDKAAKRAVVVGCGGRFPVEDAKGEVQLFCGNAATAMRPLTAAVTAAGGNATYVLDGVPRMRERPIGDLVVGLKQLGADVDCFLGTDCPPVRVNGIGGLPGGKVKLSGSISSQYLSALLMAAPLALGDVEIEIIDKLISLPYVEMTLRLMERFGVKAEHSDSWDRFYIKGGQKYESPKNAYVEGDASSASYFLAGAAITGGTVTVEGCGTTSLQGDVKFAEVLEMMGAKVTWTETSVTVTGPPREPFGRKHLKAIDVNMNKMPDAAMTLAVVALFADGPTAIRDVGSWRVKETERMVAICTELTKLGASVEEGPDYCIITPPPKLNVTAIDTYGDHRMAMAFSLAACAEVPVTIRDPGCTRKTFPDYFDVLSTFVKN
modifications: Zea mays
As for B3, in the data set on maize EPSPS [1] (Table 2), the kcat stood at 10.4 s⁻¹, the “kcat/KM*KI” value came to 30900 and the KI/KM was 49.4. Also, in the data set with maize EPSPS [1] (setting [3]), the Km was found to be 26.3 µM. In addition, the Ki at maize EPSPS [1] (Table 2, inhibitor glyphosate) came out at 1300 µM. For the same molecule, in the data set with maize EPSPS [2] (setting [4]), the kcat gly was 2.07 s⁻¹.

B4: Zm D2-68: maize EPSPS variant, SEQ ID NO: 4 (protein)
chain: MRKWEEIVLQPIKEISGTVKLPGSKSLSNRILLLAALAEGTTVVDNLLNSEDVLYMLGALRTLGLSVEHDKAAKRAVVVGCGGRFPVEDAKGEVQLFCGNAATAMRPLTAAVTAAGGNATYVLDGVPRMRERPIGDLVVGLKQLGADVDCFLGTDCPPVRVNGIGGLPGGKVKLSGSISSQYLSALLMAAPLALGDVEIEIIDKLISLPYVEMTLRLMERFGVKAEHSDSWDRFYIKGGQKYLSPKNAYVEGDASSASYFLAGAAITGGTVTVEGCGTTSLQGDVKFAEVLEMMGAKVTWTETSVTVTGPPREPFGRKHLKAIDVNMNKMPDAAMTLAVVALFADGPTAIRDVASWRVKETERMVAICTELTKLGASVEEGPDYCIITPPPKLNVTAIDTYGDHRMAMAFSLAACAEVPVTIRDPGCTRKTFPDYFDVLSTFVKN
modifications: Zea mays
On to B4, for which, in the data set with maize EPSPS [1] (Table 2), the turnover number (kcat) came to 9.23 s⁻¹, the “kcat/KM*KI” value is recorded as 37400 and the KI/KM was 67.5. Moreover, the Km with maize EPSPS [1] (setting [3]) was 22.1 µM. Further, at maize EPSPS [1] (Table 2, inhibitor glyphosate), the Ki was 1490 µM. For the same molecule, in the data set with maize EPSPS [2] (setting [4]), the kcat gly turned out to be 1.88 s⁻¹.

B5: Zm D2-67: maize EPSPS variant, SEQ ID NO: 5 (protein)
chain: MRKWEEIVLQPIKEISGTVKLPGSKSLSNRILLLAALSEGTTVVDNLLNSEDVHYMLGALRTLGLSVEHDKAAKRAVVVGCGGRFPVEDAKGEVQLFCGNAATAMRPLTAAVTAAGGNATYVLDGVPRMRERPIGDLVVGLKQLGADVDCFLGTDCPPVRVNGIGGLPGGKVKLSGSISSQYLSALLMAAPLALGDVEIEIIDKLISLPYVEMTLRLMERFGVKAEHSDSWDRFYIKGGQKYESPKNAYVEGDASSASYFLAGAAITGGTVTVEGCGTTSLQGDVKFAEVLEMMGAKVTWTETSVTVTGPPREPFGRKHLKAIDVNMNKMPDAAMTLAVVALFADGPTAIRDVGSWRVKETERMVAIRTELTKLGASVEEGPDYCIITPPPKLNVTAIDTYGDHRMAMAFSLAACAEVPVTIRDPGCTRKTFPDYFDVLSTFVKN
modifications: Zea mays
Regarding B5, in the data set with maize EPSPS [1] (Table 2), the kcat came to 9.47 s⁻¹, the “kcat/KM*KI” value amounted to 27100 and the KI/KM was found to be 47.7. Also, in the data set with maize EPSPS [1] (setting [3]), the Michaelis-Menten constant (Km) was found to be 20 µM. Besides, the Ki on maize EPSPS [1] (Table 2, inhibitor glyphosate) stood at 955 µM. Besides, the kcat gly in the data set on maize EPSPS [2] (setting [4]) came to 1.98 s⁻¹. Besides, the kcat gly in the data set with maize EPSPS [2] (Table 5, maize variants) was found to be 2.3 s⁻¹. The Zm/Os with maize EPSPS [2] (Table 5, ratio of kcat gly, maize variant to rice ortholog) was determined as 1.35.

For orientation: Ki means a dissociation constant, usually derived from enzyme kinetics or from competition with a known ligand. By kcat is commonly meant the number of substrate molecules converted per active site and unit of time at saturation. For orientation: Km means the concentration of substrate that gives half-maximal velocity.

Source of the values: US20200392528A1, “IMPROVED PLANT EPSP SYNTHASES AND METHODS OF USE” (PIONEER HI-BRED INTERNATIONAL, INC., priority 2017, published 2020).
